B1: TRIM55 (parent)
chain: ICPICLEMFTKPVVILPCQHNLCR

In the supplement of paper PMC10567573 one finds protein stability index data, which are given here for 94 variants.
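Note: lentivirally expressed fusions sorted by FACS into six bins by GFP to DsRed ratio, PSI derived from sequencing read proportions per bin multiplied by bin number.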

Variants of B1 are the subject of the series. The series is described as follows: protein stability index of a GFP-peptide fusion (GPS, HEK-293T) (PSI 1-6); higher = more stable. The settings on record: c terminus: a fixed tail appended.
As to ICPICLEMFTKEVVILPCQHNLCR [P12E], the protein stability index came out at 2.55.
Take ICPICLEMFTKHVVILPCQHNLCR [P12H]: the protein stability index is 2.04.
For ICPICLEMFTKVVVILPCQHNLCR [P12V] the value was 2.29.
As for ICPICLEMFTKKVVILPCQHNLCR [P12K], the figure is 2.5; as for ICPICLEMFTKQVVILPCQHNLCR [P12Q], 2.43; as for ICPICLEMFTKTVVILPCQHNLCR [P12T], 2.34.
For ICPICLEMFTKIVVILPCQHNLCR [P12I] the value was 2.23; for ICPICLEMFTKNVVILPCQHNLCR [P12N], 2.99.
With ICPICLEMFTKCVVILPCQHNLCR [P12C], the protein stability index worked out at 2.42.
In the case of ICPICLEMFTKDVVILPCQHNLCR [P12D], the protein stability index is 2.61.
As for ICPICLEMFTKSVVILPCQHNLCR [P12S], the figure is 2.59.
For ICPICLEMFTKAVVILPCQHNLCR [P12A] the value was 2.19; for ICPICLEMFTKLVVILPCQHNLCR [P12L], 2.02.
As for ICPICLEMFTKFVVILPCQHNLCR [P12F], the figure is 1.55; as for ICPICLEMFTKWVVILPCQHNLCR [P12W], 1.97; as for ICPICLEMFTKRVVILPCQHNLCR [P12R], 2.05.
Take ICPICLEMFTKGVVILPCQHNLCR [P12G]: the protein stability index was found to be 2.25.
For ICPICLEMFTKMVVILPCQHNLCR [P12M] the value was 2.25; for ICPICLEMFTKYVVILPCQHNLCR [P12Y], 1.8; for ICPICLEMFQKPVVILPCQHNLCR [T10Q], 3.09.
For ICPICLEMFWKPVVILPCQHNLCR [T10W] the value was 2.27; for ICPICLEMFSKPVVILPCQHNLCR [T10S], 2.74.
As for ICPICLEMFKKPVVILPCQHNLCR [T10K], the figure is 2.34.
On to ICPICLEMFRKPVVILPCQHNLCR [T10R], for which the protein stability index amounted to 2.38.
As for ICPICLEMFLKPVVILPCQHNLCR [T10L], the figure is 2.59.
For ICPICLEMFVKPVVILPCQHNLCR [T10V] the value was 1.56.
For ICPICLEMFPKPVVILPCQHNLCR [T10P] the value was 2.46; for ICPICLEMFNKPVVILPCQHNLCR [T10N], 2.73.
Turning to ICPICLEMFMKPVVILPCQHNLCR [T10M], the protein stability index was 2.3.
As for ICPICLEMFYKPVVILPCQHNLCR [T10Y], the figure is 2.06; as for ICPICLEMFTIPVVILPCQHNLCR [K11I], 2.29; as for ICPICLEMFTMPVVILPCQHNLCR [K11M], 1.94.
As for ICPICLEMFTDPVVILPCQHNLCR [K11D], the figure is 3.28.
As for ICPICLEMFTRPVVILPCQHNLCR [K11R], the figure is 1.87; as for ICPICLEMFTVPVVILPCQHNLCR [K11V], 1.98; as for ICPICLEMFTEPVVILPCQHNLCR [K11E], 2.83.
ICPICLEMFTCPVVILPCQHNLCR [K11C]: the protein stability index was 2.51.
As to ICPICLEMFTYPVVILPCQHNLCR [K11Y], the protein stability index was determined as 1.69.
For ICPICLEMFTTPVVILPCQHNLCR [K11T] the value was 2.26; for ICPICLEMFTFPVVILPCQHNLCR [K11F], 2.2.
As for ICPICLEMFTPPVVILPCQHNLCR [K11P], the figure is 2.35; as for ICPICLEMFTNPVVILPCQHNLCR [K11N], 2.32; as for ICPICLEMFTLPVVILPCQHNLCR [K11L], 1.9.
As for ICPICLEMFTSPVVILPCQHNLCR [K11S], the figure is 2.67; as for ICPICLEMFTGPVVILPCQHNLCR [K11G], 2.56; as for ICPICLEMFTAPVVILPCQHNLCR [K11A], 3.04.
On to ICPICLEMFTQPVVILPCQHNLCR [K11Q], for which the protein stability index was found to be 2.6.
In the case of ICPICLEMFTHPVVILPCQHNLCR [K11H], the protein stability index was 2.4.
With ICPICLEMFTWPVVILPCQHNLCR [K11W], the protein stability index amounted to 1.93.
As for ICPICLEMFTKPVFILPCQHNLCR [V14F], the figure is 2.49; as for ICPICLEMFTKPVDILPCQHNLCR [V14D], 3.31.
As for ICPICLEMFTKPVAILPCQHNLCR [V14A], the figure is 2.56.
As for ICPICLEMFTKPVCILPCQHNLCR [V14C], the figure is 2.32.
With ICPICLEMFTKPVNILPCQHNLCR [V14N], the protein stability index was found to be 2.93.
As for ICPICLEMFTKPVTILPCQHNLCR [V14T], the figure is 2.63.
As for ICPICLEMFTKPVKILPCQHNLCR [V14K], the protein stability index worked out at 2.33.
For ICPICLEMFTKPVLILPCQHNLCR [V14L], the protein stability index is 2.29.
For ICPICLEMFTKPVQILPCQHNLCR [V14Q] the value was 2.59; for ICPICLEMFTKPVIILPCQHNLCR [V14I], 2.4.
As for ICPICLEMFTKPVHILPCQHNLCR [V14H], the figure is 2.82.
With ICPICLEMFTKPVMILPCQHNLCR [V14M], the protein stability index was 2.98.
As for ICPICLEMFTKPVWILPCQHNLCR [V14W], the figure is 1.89; as for ICPICLEMFTKPVSILPCQHNLCR [V14S], 3.12; as for ICPICLEMFTKPVPILPCQHNLCR [V14P], 2.56.
As for ICPICLEMFTKPVGILPCQHNLCR [V14G], the figure is 2.54; as for ICPICLEMFTKPVYILPCQHNLCR [V14Y], 2.15.
As for ICPICLEMFTKPVEILPCQHNLCR [V14E], the figure is 3.02.
As to ICPICLEMFTKPVRILPCQHNLCR [V14R], the protein stability index is 2.47.
For ICPICLEMFTKPDVILPCQHNLCR [V13D] the value was 3.31; for ICPICLEMFTKPFVILPCQHNLCR [V13F], 2.31.
As for ICPICLEMFTKPNVILPCQHNLCR [V13N], the figure is 2.92; as for ICPICLEMFTKPSVILPCQHNLCR [V13S], 2.58.
For ICPICLEMFTKPKVILPCQHNLCR [V13K] the value was 2.15; for ICPICLEMFTKPIVILPCQHNLCR [V13I], 2.11; for ICPICLEMFTKPRVILPCQHNLCR [V13R], 2.19.
Take ICPICLEMFTKPTVILPCQHNLCR [V13T]: the protein stability index came out at 2.62.
As for ICPICLEMFTKPMVILPCQHNLCR [V13M], the figure is 2.33; as for ICPICLEMFTKPQVILPCQHNLCR [V13Q], 3.49.
As for ICPICLEMFTKPLVILPCQHNLCR [V13L], the figure is 2.26; as for ICPICLEMFTKPPVILPCQHNLCR [V13P], 2.23; as for ICPICLEMFTKPAVILPCQHNLCR [V13A], 2.37.
As for ICPICLEMFTKPWVILPCQHNLCR [V13W], the figure is 1.89.
For the variant ICPICLEMFTKPYVILPCQHNLCR [V13Y], the protein stability index amounted to 1.99.
With ICPICLEMFTKPCVILPCQHNLCR [V13C], the protein stability index worked out at 2.21.
As for ICPICLEMFTKPGVILPCQHNLCR [V13G], the figure is 2.84; as for ICPICLEMFTKPHVILPCQHNLCR [V13H], 2.63.
As for ICPICLEMFTKPEVILPCQHNLCR [V13E], the figure is 2.61; as for ICPICLEMFTKPVVDLPCQHNLCR [I15D], 2.81; as for ICPICLEMFTKPVVELPCQHNLCR [I15E], 3.32.
As for ICPICLEMFTKPVVALPCQHNLCR [I15A], the figure is 2.84; as for ICPICLEMFTKPVVFLPCQHNLCR [I15F], 2.32; as for ICPICLEMFTKPVVGLPCQHNLCR [I15G], 2.53.
On to ICPICLEMFTKPVVHLPCQHNLCR [I15H], for which the protein stability index was 2.38.
As for ICPICLEMFTKPVVCLPCQHNLCR [I15C], the figure is 2.71.
